Measurements reported in US20190119357A1, “MESSENGER RIBONUCLEIC ACIDS FOR THE PRODUCTION OF INTRACELLULAR BINDING POLYPEPTIDES AND METHODS OF USE THEREOF” (ModernaTX, Inc., priority 2015, published 2019).
Entries after “also recorded” stand apart in the source; their conditions may differ.

Tests used:
[1] = tested on: Hep3B cells; test: Effect of insertion site position on apoptotic potency, YOYO3; type: cell-based; details: Hep3B cells transfected with constructs
Experimental: BH3 domain was inserted into either the N-terminal insertion site, the loop 1 insertion site or the loop 2 insertion site of the SQT scaffold polypeptide. The mRNA sequences of these SQT-BID-BH3 constructs, with a FLAG epitope tag, are shown in SEQ ID NOs: 43-45, respectively. Corresponding mRNA sequences without the FLAG tag are shown in SEQ ID NOs: 46-48. Hep3B cells were transfected with the constructs and the apoptotic ability of the constructs was assessed using YOYO3 to determine cell death, as described above.

[2] = tested on: Hep3B cells; test: Anti-MCL1 mmRNA construct combined with SQT-PUMA-BH3, YOYO-3; type: cell-based; details: 50 ng anti-MCL1 mRNA, 1.6 ng SQT-PUMA-BH3, L2K, 48 hours
Experimental: The anti-MCL1 mmRNA construct was tested for synergistic killing when combined with SQT-PUMA-BH3 in Hep3B cells. 20,000 Hep3B cells were seeded per well in 96-well plates. Each well was transfected with (a) 1.6 ng SQT-empty (“SQT-dummy”) or SQT-PUMA-BH3; and (b) 50 ng or 12.5 ng anti-MCL1 mRNA. Transfections of mRNA were done with Lipofectamine 2000 (L2K). After 48 hours, apoptosis measurements performed using YOYO-3 viability dye in an Incucyte instrument.

[3] = tested on: Hep3B cells; test: Co-transfection of SQT-Bim-BH3 in MC3 LNPs with Bcl-2-like trap mRNA constructs, YOYO-3; type: cell-based; details: 272 picomolar SQT-Bim-BH3 in MC3 LNPs, increasing amounts of trap mRNA, 12 hour time point
Description: YOYO-3 viability dye was used to assess apoptosis of cells.

[4] = tested on: HeLa cells; test: PARP-1 cleavage by SDS-PAGE and Western blotting after transfection of mRNAs encoding SQT-BH3 constructs; type: cell-based; details: from anti-FLAG and anti-GFP Western blotting
Description: The cleavage of PARP-1 was detected by the appearance of a faster-migrating band and concomitant loss of the full-length band by SDS-PAGE and Western blotting. Western blotting with anti-actin antibodies served as a loading control.

[5] = target: T1, BCL-XL (Homo sapiens, UniProt Q07817); test: Co-immunoprecipitation after mRNA transfection; type: binding; details: within two hours after mRNA transfection
T1 construct: endogenous in cells; host or cells: cells transfected with SQT-BH3 mRNA (HeLa by context)
T1 sequence (Q07817 whole entry): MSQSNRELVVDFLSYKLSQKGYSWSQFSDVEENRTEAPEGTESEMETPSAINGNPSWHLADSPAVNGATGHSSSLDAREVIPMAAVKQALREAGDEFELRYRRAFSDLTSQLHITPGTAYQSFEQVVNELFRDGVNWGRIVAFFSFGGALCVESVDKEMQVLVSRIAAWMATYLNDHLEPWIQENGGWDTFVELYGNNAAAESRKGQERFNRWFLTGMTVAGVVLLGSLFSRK

[6] = target: T2, BCL-2 (Homo sapiens, UniProt P10415); test: Co-immunoprecipitation after mRNA transfection; type: binding; details: within two hours after mRNA transfection
T2 construct: endogenous in cells; host or cells: cells transfected with SQT-BH3 mRNA (HeLa by context)
T2 sequence (P10415 whole entry): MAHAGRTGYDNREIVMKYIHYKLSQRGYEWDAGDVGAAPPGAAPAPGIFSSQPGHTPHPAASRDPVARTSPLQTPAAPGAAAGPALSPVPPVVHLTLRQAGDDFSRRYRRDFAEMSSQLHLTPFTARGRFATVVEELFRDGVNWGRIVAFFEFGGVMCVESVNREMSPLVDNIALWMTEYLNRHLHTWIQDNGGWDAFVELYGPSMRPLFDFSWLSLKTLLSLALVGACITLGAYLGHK

[7] = target: T3, MCL-1 (Homo sapiens, UniProt Q07820); test: Co-immunoprecipitation in lysates of transfected HeLa cells; type: binding; details: lysates of HeLa cells transfected with mRNAs
T3 construct: performed in lysates of HeLa cells transfected with mRNAs encoding SQT-BH3 constructs; endogenous in cells; host or cells: HeLa
T3 sequence (Q07820 whole entry): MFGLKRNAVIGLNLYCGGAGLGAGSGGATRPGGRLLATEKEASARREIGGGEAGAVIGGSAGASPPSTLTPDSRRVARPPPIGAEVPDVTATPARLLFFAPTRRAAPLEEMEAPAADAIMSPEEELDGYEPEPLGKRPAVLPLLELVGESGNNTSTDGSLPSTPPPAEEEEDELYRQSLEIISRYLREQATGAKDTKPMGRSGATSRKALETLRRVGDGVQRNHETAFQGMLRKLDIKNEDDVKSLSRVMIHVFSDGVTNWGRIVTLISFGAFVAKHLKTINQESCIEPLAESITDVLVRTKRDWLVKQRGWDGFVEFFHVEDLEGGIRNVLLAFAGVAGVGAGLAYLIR

[8] = tested on: human melanoma cells (A375); test: Cell death after mRNA transfection; type: cell-based
[9] = tested on: human hepatocellular carcinoma (Hep G2) cells; test: Cell death and morphology after mRNA transfection; type: cell-based
Description: A representative graph of the apoptotic ability of the SQT-BH3 constructs is shown in FIG. 2, showing the cell killing capacity of the SQT-BH3 constructs in Hep G2 cells.

[10] = tested on: Hep3B cells; test: Cell death by YOYO-3 with MC3-formulated LNPs; type: cell-based
Experimental: The efficacy of mRNAs encoding SQT-BH3 constructs in inducing cell death was tested both in hepatocellular carcinoma cell lines as well as in primary hepatocytes using lipid nanoparticle (LNP)-formulated constructs. Hep3B cells were treated with varying doses (0.78 ng to 50 ng) of MC3-formulated LNPs in the presence of YOYO-3 (Life Technologies), a DNA dye that is taken up preferentially by dead cells that is used to measure the extent of cell death. MC3 lipid nanoparticles included MC3 50%, DSPC 10%, Cholesterol 38.5%, PEG-DMG 1.5%, N:P ˜5.5.

[11] = tested on: HepG2 cells; test: Cell death by YOYO3 with MC3 LNPs; type: cell-based
[12] = tested on: primary hepatocytes; test: Apoptosis induction by MC3 LNP-formulated mRNAs in primary hepatocytes cultured in vitro; type: cell-based
[13] = tested on: HeLa cells; test: Efficiency of cell killing at low mRNA dose; type: cell-based; details: approximately 0.78 ng mRNA
[14] = tested on: Hep3B cells; test: Efficiency of cell killing at low mRNA dose and dose-response; type: cell-based

B1: SQT(nt)BID-BH3: mRNA (SEQ ID NO: 43) encoding SQT with a single BID BH3 domain in the N-terminal insertion site (nucleic acid, listed as Homo sapiens)
chain: ATGATACCCAGACAAGAGGACATCATTCGTAACATCGCGCGACACCTGGCCCAGGTGGGGGACTCCATGGATCGATCAATCCCCCCTGGCTTATCCGAAGCTAAGCCAGCCACCCCTGAGATCCAAGAAATCGTCGACAAGGTCAAGCCCCAACTTGAAGAGAAAACTAATGAAACTTATGGTAAGCTCGAAGCCGTGCAATACAAGACTCAGGTCCTGGCGTCTACAAATTATTACATCAAGGTGAGGGCCGGGGACAATAAGTATATGCATCTGAAAGTCTTCAATGGCCCCCCTGGACAAAACGCAGATCGGGTGCTCACAGGATACCAGGTCGATAAAAATAAAGATGACGAACTTACTGGGTTTGATTATAAAGATGATGATGACAAG
modifications: (1)..(393) SQT(nt)BID-BH3 mRNA sequence with FLAG epitope tag
[1]
  apoptotic potency (YOYO3 cell death): more potent than the SQT-BID-BH3 constructs with the BH3 domain inserted at either the loop 1 insertion site or the loop 2 insertion site

B2: SQT.(nt)Mcl1.BH3.cv5: anti-MCL1 mmRNA construct, ORF amino acid SEQ ID NO: 108, nucleotide SEQ ID NO: 112, v5 tag (nucleic acid)
chain: ATGATCCCTAGGAAGGCCCTGGAGACCCTGAGGAGAGTGGGCGACGGAGTGCAGAGGAACCACGAGACCGCCTTCGGCCTGAGCGAGGCAAAGCCAGCAACACCCGAGATCCAGGAGATCGTGGATAAGGTGAAGCCCCAGCTGGAGGAGAAGACCAATGAGACATACGGCAAGCTGGAGGCCGTGCAGTATAAGACCCAGGTGCTGGCCTCCACAAACTACTATATCAAGGTGCGGGCCGGCGACAATAAGTACATGCACCTGAAGGTGTTCAACGGACCACCTGGACAGAATGCAGACAGGGTGCTGACCGGCTATCAGGTGGATAAGAACAAGGACGATGAGCTGACAGGCTTTGGCAAGCCAATCCCCAATCCTCTGCTGGGCCTGGATTCTACA
modifications: V5 tag; Synthetic SQT.(nt)Mcl1.BH3.cv5
[2]; listed as anti-MCL1 construct
  apoptosis (YOYO-3) in combination with SQT-PUMA-BH3: synergistic anti-apoptotic effect in combination with SQT-PUMA-BH3
[2]; listed as anti-MCL1 mRNA construct
  apoptosis (YOYO-3) in combination with SQT-PUMA-BH3: synergistic pro-apoptotic effects

B3: Bcl-2 (D34A) del.C32: Bcl-2-like trap mRNA, SEQ ID NO: 82, FLAG tag (nucleic acid)
chain: ATGGCACACGCTGGTAGGACAGGCTACGACAACCGTGAGATTGTGATGAAGTATATTCACTATAAGCTGTCTCAAAGAGGCTACGAATGGGATGCGGGGGCCGTCGGGGCTGCCCCACCTGGTGCCGCCCCGGCTCCTGGGATTTTCTCTTCCCAGCCGGGACATACCCCTCATCCTGCCGCTTCTAGGGACCCTGTGGCAAGAACATCCCCTCTACAGACCCCTGCCGCCCCAGGTGCGGCTGCTGGCCCAGCGTTAAGTCCCGTTCCACCAGTCGTGCACCTTACCCTTAGGCAAGCGGGCGACGATTTCTCTAGGCGATACCGGAGGGACTTTGCCGAAATGTCATCACAGCTCCATCTTACTCCATTTACTGCCCGTGGCAGATTCGCCACCGTAGTGGAAGAACTCTTTCGAGACGGCGTAAATTGGGGGAGGATCGTGGCATTTTTCGAATTTGGAGGGGTTATGTGTGTGGAGAGCGTGAATCGGGAAATGTCTCCTCTGGTTGACAATATTGCCTTGTGGATGACCGAATATCTTAACAGGCACCTCCACACCTGGATTCAAGATAATGGTGGATGGGATGCGTTTGTGGAACTTTATGGGCCTTCAATGCGTGACTATAAGGACGACGACGACAAA
modifications: FLAG tag; Synthetic Bcl-2(D34A)del.C32 BH3 mRNA sequence with FLAG epitope tag
[3]
  protection from apoptosis by SQT-Bim-BH3 (YOYO-3): all of the tested trap constructs except Bcl-2 (D34A) del.C32 were able to protect

B4: SQT-Bim-BH3: mRNA (SEQ ID NO: 50, FLAG) encoding SQT scaffold with Bim BH3 domain in N-terminus (nucleic acid)
chain: ATGATCCCAAGAGACATGCGCCCCGAAATTTGGATCGCCCAGGAGCTCAGACGCATCGGAGATGAATTCAACGCATACTACGCTCGGCGGGGACTCTCAGAAGCGAAGCCTGCCACCCCCGAAATCCAGGAAATCGTCGACAAGGTCAAGCCGCAGCTTGAGGAAAAGACCAACGAGACTTACGGAAAACTGGAGGCCGTGCAGTATAAGACCCAAGTGTTGGCCTCCACCAACTACTACATTAAGGTCCGCGCCGGCGATAACAAGTACATGCACCTGAAGGTGTTCAATGGTCCTCCGGGACAGAACGCGGACAGGGTGCTGACTGGCTACCAAGTGGACAAGAACAAGGACGACGAGCTGACGGGCTTCGACTACAAGGATGATGATGACAAA
modifications: FLAG tag; Synthetic SQT-BIM-BH3 mRNA sequence with FLAG epitope tag
[4]
  cell death of transfected cells: underwent cell death
[5]
  interaction with BCL-XL by co-immunoprecipitation: able interact
[6]
  interaction with BCL-2 by co-immunoprecipitation: to a lesser extent
[7]
  co-immunoprecipitation of MCL-1: able to co-immunoprecipitate
[8]
  cell death: caused rapid cell death almost immediately following transfection
[9]
  cell death: caused rapid cell death almost immediately following transfection; also recorded: underwent cell death almost immediately following transfection
  cell morphology: rounded-up cell morphology that is characteristic of apoptotic cells
[10]; four-fold lower concentration
  cell killing (YOYO-3): induced cell killing in Hep3B cells more efficiently than SQT-PUMA-BH3
[10]; relatively high concentration
  apoptosis and cell death (YOYO-3): both induced apoptosis and cell death; also recorded: kills Hep3B cells at higher concentrations
[11]
  cell death (YOYO3 staining): lead to cell death; also recorded: kills HepG2 cells
  efficacy and timing of cell death, comparison: induced cell death with an increase in both efficacy and timing compared to SQT-PUMA-BH3
[12]; LNPs
  PARP-1 cleavage: also induced PARP-1 cleavage in primary hepatocytes
[12]; MC3-LNP-formulated
  apoptosis (YOYO-3 dye uptake and fluorescence) as a function of time: induce apoptosis
[13]
  efficiency of cell killing: killed both HeLa cells and Hep3B cells with greater efficiency than SQT-PUMA-BH3
[14]; Hep3B cells, approximately 0.78 ng mRNA
  efficiency of cell killing: killed both HeLa cells and Hep3B cells with greater efficiency than SQT-PUMA-BH3
[14]; Hep3B, 12 hours after transfection, L2K lipid nanoparticles
  cell killing, dose-response curve: more efficient cell killing by SQT-Bim-BH3 at low doses
